Values of other authors as cited in article PMC8296985, “A Covalent Calmodulin Inhibitor as a Tool to Study Cellular Mechanisms of K-Ras-Driven Stemness” (Frontiers in Cell and Developmental Biology, 2021).

Columns and labels:
[1] = biological target: Calmodulin N-terminal lobe (Homo sapiens) (UniProt P0DP23)
[2] = biological target: Calmodulin C-terminal lobe (Homo sapiens) (UniProt P0DP23)
[3] = biological target: Calmodulin (Homo sapiens) (UniProt P0DP23); experiment: fluorescence polarization

Substance | Kd [1] [nM] | Kd [2] [nM] | Kd [3] [nM]
K-Ras (from UniProt P01116) | 4000 | 500 | 
F-PMCA peptide (from UniProt P20020) |  |  | 6
